Data as given in the DeepSol protein solubility set.

Assay: soluble on expression in E. coli; label from the status in PepcDB or PDB records

Sequence | soluble on expression in E. coli
KDGDFLDMDWHGPNDADAPLVLVLHGLTGSSNSPYVAGLQKAMAAKGWASVALNWRGCSGEPNLLSRSYHSGASEDLAEVIAHLRLLRPLAALYAVGYSLGGNVLLKYLGESGKHSELLGAVAVSVPFRLDECANRIGQGFSKVYQRHFMREMLTYIRDKQQRFQHEGLTEGLAELSALGSLENMRTFWDFDGRVTAPLHGFVDATDYYRRASSRYYLGQIETPTLIIQSRDDPFVFPHSLPEPGELSACTEFELHAKGGHVGFVDGSLRNPTYYLERRIPSWL | not soluble
MNKEEQVMMSLRELFNKMAWLNKLKMEDSLKGYKPSEVHYIECIGKNVDSNVTKLAKSLYMTRGAISKMTKKLIEKNIVESYQKADNKKEIYFRLTEKGHEIYKLHENLHKEFQERDKVVFEQVTDEQFESMLSFIEKYSKHLDSEIKKLGIDTKLE | not soluble
MNTDVRIEKDFLGEKEIPKDAYYGVQTIRATENFPITGYRIHPELIKSLGIVKKSAALANMEVGLLDKEVGQYIVKAADEVIEGKWNDQFIVDPIQGGAGTSINMNANEVIANRALELMGEEKGNYSKISPNSHVNMSQSTNDAFPTATHIAVLSLLNQLIETTKYMQQEFMKKADEFAGVIKMGRTHLQDAVPILLGQEFEAYARVIARDIERIANTRNNLYDINMGATAVGTGLNADPEYISIVTEHLAKFSGHPLRSAQHLVDATQNTDCYTEVSSALKVCMINMSKIANDLRLMASGPRAGLSEIVLPARQPGSSIMPGKVNPVMPEVMNQVAFQVFGNDLTITSASEAGQFELNVMEPVLFFNLIQSISIMTNVFKSFTENCLKGIKANEERMKEYVEKSIGIITAINPHVGYETAAKLAREAYLTGESIRELCIKYGVLTEEQLNEILNPYEMIHPGIAGRK | soluble
MINSPRVCIQVQSVYIEAQSSPDNERYVFAYTVTIRNLGRAPVQLLGRYWLITNGNGRETEVQGEGVVGVQPLIAPGEEYQYTSGAIIETPLGTMQGHYEMIDENGVPFSIDIPVFRLAVPTLIH | soluble
MIDQLQVGPNPLVGLLDDVHMLEVQRDSGVANILNSPEIKKRHYNATRKRVNRRDSTIVEPEAKSRKMDENWTGVGTESESTDCVETTETRFTWFKAQTKHPGLAKSLQSEVTKVGLSIVDLQHCTLPCKSINYNFHFYSFKGLSREDSKKFEEMIDQNFVNNFCAENLLNKEDKNFFYYDLGYKQVVSLSMLATYFKIKNEQPLLHPLKMLLNKQLLKKAFEDADTHVELKKYLSKNGYSKLVQWMEEMTQ | not soluble
MKNLVEEKEAFRFGVSGDIGSFSEEAALLYARKKGLNAHLVHLLDMEGVLNAIENETIDLGILPVVNLLGGLVKPAFQAMGKYSFTPIDEIWHDINQCLLVKTNTQNHKITHIVSHPQGFAQCKKFLRNKFKNAKKIEWIDTAKAAKDLAEGILPPHAAVIASARCAPLYDLKISARNIQDSHLNRTAFILVKKLEHHHHHH | not soluble
MASATARGLRKRLTPQEARLWAGLRELKLRGYHFRRRAPIGCYVVDFVCLSAKLVIDADGEQQAMPAHFAADRQRGVVLRRQGFRVLHFWNSDIDRYFEGVMQTVLDALPPPSVRPNVSRTGHSIHEGAGESG | soluble
MMDLELPPPGLPSQQDMDLIDILWRQDIDLGVSREVFDFSQRRKEYELEKQKKLEKERQEQLQKEQEKAFFAQLQLDEETGEFLPIQPAQHIQSETSGSANYSQVAHIPKSDALYFDDCMQLLAQTFPFVDDNEVSSATFQSLVPDIPGHIESPVFIATNQAQSPETSVAQVAPVDLDGMQQDIEQVWEELLSIPELQCLNIENDKLVETTMVPSPEAKLTEVDNYHFYSSIPSMEKEVGNCSPHFLNAFEDSFSSILSTEDPNQLTVNSLNSDATVNTDFGDEFYSAFIAEPSISNSMPSPATLSHSLSELLNGPIDVSDLSLCKAFNQNHPESTAEFNDSDSGISLNTSPSVASPEHSVESSSYGDTLLGLSDSEVEELDSAPGSVKQNGPKTPVHSSGDMVQPLSPSQGQSTHVHDAQCENTPEKELPVSPGHRKTPFTKDKHSSRLEAHLTRDELRAKALHIPFPVEKIINLPVVDFNEMMSKEQFNEAQLALIRDIRRRGKNKVAAQNCRKRKLENIVELEQDLDHLKDEKEKLLKEKGENDKSLHLLKKQLSTLYLEVFSMLRDEDGKPYSPSEYSLQQTRDGNVFLVPKSKKPDVKKN | not soluble
MSLGSERWITVQLVGEIMGTSFERGISQYPNVNDEVHLVTESDLEAIHGVEEQGQVVVGRLASADGIPVKLDLDKMVTRHSAVLGSTGSGKSTTVASLLRSIVSGADGSDAGFPSSRILMLDIHGEYSHALSDVAKVFRISPEANQTQLHIPFWALDPNELLCFLMGRLDDKPLTAILDKVYEYKHDQAVAHPRAGLNVTSMTSDTPVPFSLKKLWLELLEPEVKTWEDTARSQPALLEAGNADNVTPPQYKPHGAGATPPFINQIGVLGIRRPLDQLRSRLLDKKYDFLLHPGDWEPDLDGNVTKDLDALLEEWLGHDKPITILDLSGVPSLVLEQLIGAILRILYEALFWGRDRSEGHHHHHH | soluble
RTVRQTPKQSERYVVVLSLDGFRPDYTDRARTPALDRMAQEGLSGSLQPCFPSLTFPNHYSMATGLYPDHHGIVANEFVDSLLGIFRISDRKAVETPGFWGGEPVWNTAARQGIRTGVYFWVGSETAVNGNRPWRWKKFSSTVPFRDRADSVIAWLGLPEKERPRLLMWYIEEPDMIGHSQTPESPLTLAMVERLDSVVGYFRKRLDSLPIAAQTDFIIVSDHGMATYENEKCVNLSH | not soluble
MSHFTQLKTKLTNRDCLVQALEDLKLQPHVFEQPQPLAGYYMDSQGYSAEIIIFGRTIKARADIGFRWNQSSGVYEVIHDEYETSPRLGEDFFSHKLMQTYGRRMVLAKTEELREKFGECTISEETKGQVQTLRLTFAGHQEVKQYARRLEHHHHHH | not soluble
MARLTAYERRKFRVRNRIKRTGRLRLSVFRSLKHIYAQIIDDEKGVTLVSASSLALKLKGNKTEVARQVGRALAEKALALGIKQVAFDRGPYKYHGRVKALAEGAREGGLEF | soluble
MGSDKIHHHHHHMLLQRSTWPEVEAYLQQSDGIIIPIGSTEQHGPTGLIGTDAICAEAIAQGVADRTQALVGPTINVGMALHHLGFPGSVSLRPSTLLQVIVDYLSSLAQHGFRHFYFINGHGGNIATVRAAFAEFYAVAGDRRCPEPDRLRCHLANWFMVPAVTKLARELYGDEEGSHATPSEVALTQFIYPDSIKTAPLTVEVHSSHAIYAADDFRRRYPDGRMGSNPALATPEHGQQFYESAVAELSQSYQAFLAAD | not soluble
MLSALLIRNIRNASKLASVAGPNSDRIVNVKWSDGKTGVFPLIWLRDTSPDPSTYTISPAMTARKLTMLEFDVEQNARKLWIDEDANCLKIEWESGVLSEFPSEWLKIRNPSDQEARRRRRKVYLFPEQTWGKAEIEGKLKKFSHEEFMKNEQVVHDFLQAVCIDGIAVLKGAPQGVRGAVEAIGDRIGMIKRTHFGLVFEVSLKADASNMAYASNGGLPFHTDFPSLSHPPQLQMLHMLQSAEEGGHSLFVDGFHVAEQLRVEKPEIFKILTTQSMEYIEEGYDVHEINGKTIRFDYDMCARHKVIRLNDDGKVNKIQFGNAMRSWFYDCEPSKVQDVYRAMKTFTEYCYQPRNMLKFRLEDGDTVLWANQRLLHTRDGFRNAPEKARTLTGCYFDWDIVKSRVRFLRDKLSLEQNQPSA | not soluble
GPGSMQPRKTVKKVDVEPSPEEDAELLPHLKVSAKWSERAANNGKSLSQVQFLLGALGKQLEDCNKELASVYANADLLSSLRITEYRQRNTPGGLLTPTRKARTKRNASTRPVARQQLDENSTEALIAAMDEKKRARVTAALIAFFKRDMQEQNSPAYQNASTPVPQGANHSSTRTSQTLGRIPSANSHTMLCESNKGNQPSCSNGNELPTLLSETQQQQLRRHRDIPPELWDEMAKLRLRRLSLEEKIGSLLSNINAQTERFGLLMEVQGVNSYSTESVNRAIEMIRQKRA | soluble
MSDGHHNGHEHVPSRQRRRFPGISSRAYEHPADRSALVALRKLSGFDTVFKALSGLLPERSLRLLFLSDSVRVSDRQFAHLNVMLRDACYILDLEKVPPMYVNQDPVPNAMCIGLDEPIIVVTTGLVELLDEEEMRAVVGHEVGHALSGHAVYRTILLFLTSLAVRVAWIPLGNVAIMAIVTALREWFRKSELSADRAGLLVGQDLQASMRGLMKIAGGNHLHEMNVDAFLEQAEEYEAGGDLRDSVLKILNVLPRSHPFTTVRAAELKKWAASRDYQRIMDGHYPRRDEDRNTSVRDSFRESASHYATHVRSSKDPLMKLVNDIAGGAGDLGDRMRRGFGGFTGSQPRPPEDDGGPAQGPGGSGRPDGPDRPEGPEGSGGSEEPGGDGPESPRDGSPRDGALEHHHHHH | not soluble
GSHMNRFLTSIVAWLRAGYPEGIPPTDSFAVLALLCRRLSHDEVKAVANELMRLGDFDQIDIGVVITHFTDELPSPEDVERVRARLAAQGWPLDDVRDREEHA | soluble
MSLIRKREFDMPIKIPDTLPAFETLVHEGVRVMTETAAIRQDIRPLQIGLLNLMPNKIKTEIQMARLVGASPLQVELSLIRIGGHRAKNTPEEHLLSFYQTWEEVRHRKFDGFIITGAPIELLDYEDVTYWNEMQQIFEWTQTNVHSTLNVCWGAMAAIYHFHGVPKYELKEKAFGVYRHRNLSPSSIYLNGFSDDFQVPVSRWTEVRRADIEKHPELEILMESDEMGVCLAHEKAGNRLYMFNHVEYDSTSLADEYFRDVNSGVPIKLPHDYFPHNDPELAPLNRWRSHAHLFFGNWINEIYQTTPYDPQAIGKLAAEGHHHHHH | soluble
MEHRYRTNLKKVFLSDSELNQLNINIDQSGCKSFSEYARRTLLDPGMNFITIDTNGYQDLVFELKRIGNNINQIARSVNQSQLISGEELQELKKGIGELIKEVDKEFNLQAQKLKEFHGHH | not soluble
SNATAYIIVGLTPKDAEKLQQYGARVASTLAKYSGEVLVKGSVEQLHGKFEHKAQVILEFPSREDAYNWYHSEEYQALISTRDLGMDSQFQLIG | soluble
MGSEEYFKKGAIKVEIKSGALLISPSEFKERYLPTLQDMPVLAFVRNIEAPKSWYSYLISNIEDQKSSIFPTNLPRILEISRRYFSSVKNGIVVIDALEYLTIYNGFEAIAKFLATLRDFAILDNGTVIIITEKKAWKDREWALLTSLLGKLEHHHHHH | soluble
MGSDKIHHHHHHMNPPPFRLFLAIRSLHKGGAERQMVELAKGLDKERFALTLCTLYGGGELERELKESGVEIFCLHKRGRSDFSFLRRYRTLIQEQNPKAIYSFLPEMNLFSLMASRFLKRSPKILWGFRSSDMDVKSYGWQSRLYYAAQKLLSPFASKIITNSHHSLAYHKHIGYCMKRAQVIHNGIDTKRFSPSLELRESFRQRYHLKDKIAIGIAARMDIAKGYPYLAKAAKIILSRYPKVLFFAAGEIDPLLQKECLEILGQEGERFIWLGGVERMEEVYNGWDILVSSSLTESFSNSIAEGMACALAPIATDVGDTSVILGEVGTLIPPKDSEMLAQKLALMIESDFKTEGERARERIVTLFSLEAMIQNSTKAILTCAES | not soluble
MKDHSGISFGKNPTVLAIENYIRENGLTPGDVLPSEAAICEHLSVSRSSVREAMRTLASLDVVEIRHGHGTYVGKMSMAPLVNGMVLRLTLNEKSAIENLQHVVGMRIALDRSNAQELAAYYKGRETPKLDQIVEEMKIQFERGESFEHQDFLFHQLLNDHLSNPLMQEFSMALWEIHTRVVPRLGLRDPEDISNTVQAHAHMVEALRAGDVDKLLETIDEHYQPLLSILEKNRQYVEQTEHAVESQKGTLHL | not soluble
